{"source": "paper PMC6475865", "key": {"[1]": {"tested_on": "Integrase IN_CRF consensus (HIV-1 CRF63_02A1 (consensus of Siberian/Ural isolates))", "test": "DRaCALA (nitrocellulose)", "conditions": "20 mM HEPES pH 7.2, 10 mM DTT, 7.5 mM MgCl2, 25 C; DRaCALA: 5 nM DNA, 0-500 nM IN, 20 min"}, "[2]": {"tested_on": "Integrase IN_A (HIV-1 subtype A strain FSU-A)", "test": "DRaCALA (nitrocellulose)", "conditions": "20 mM HEPES pH 7.2, 10 mM DTT, 7.5 mM MgCl2, 25 C; DRaCALA: 5 nM DNA, 0-500 nM IN, 20 min"}}}
{"sequence": "GTGTGGAAAATCTCTAGCAGT (double strand) [U5B/U5A duplex]", "values": [{"measurement": "Kd", "setting": "[1]", "value": 23, "unit": "nM"}, {"measurement": "Kd", "setting": "[2]", "value": 25, "unit": "nM"}]}
